Among the data in a protein production outcome set (Wang et al. 2014) are protein production values, retold here.
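Also: failed if final PepcDB status was selected cloned or expressed and not failed if soluble or beyond.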

This series can be described thus: label from the status in PepcDB records.
For “MKAKEVSLVALFVALTSVGAQISVSIGPVPLTLQVFFVILAGLVLGPKLGFLSILIYDILGALGIPVFAGFSGGIAHILGPTGGYIIAFPIATFIAGLGRGKVRYLTSLMGLLVIYLIGWMWLARFVGFNKAFILGVLPFIVPDIVKAATAVIIAERLQGNT”, the protein production result is “failed”.

With “MSLKKYQLVIVGYGGMGSYHVTLASAADNLEVHGVFDILAEKREAAAQKGLKIYESYEAVLADEKVDAVLIATPNDSHKELAISALEAGKHVVCEKPVTMTSEDLLAIMDVAKRVNKHFMAHQNRRWDEDFLIIKEMFEQKTIGEMFHLESRVHGANGIPGDWRHLKAHGGGMVLDWGVHLLDQLLFLVDSNVKSVSANLSFALGDEVDDGFVTFITFENGITAQIEVGTTNFIKLPRWYVKGTEGTGIIHDWDLSGEIVKPTALAKTSEPTPIKAGQGLTKTMAPPSEEATNTLSLPAPAKLAPSFYNNFVDVLNNTSEPIVQNEEVYQVLKLIEAIFEAAETNRTVHSIEGHHHHHH”, the protein production result is recorded as “not failed”.

“MFKRLKDSALLFWSLEILIVATLIWVCTNIGFLFQPIGTFLSVVFMPILISGFLFYMLNPLVKLLTKVHYKKFRISRTGAVAIVFVLLFGLLVWGAVSLLPRLVSQVTQLIYNLPSIATEMQKAATKLINNSSVLKRIDISSYTKQFNGEISKYSQNFLSSLSSSVVTVISTITSVTIMAITIPVVLFYMLKDSEKFIPAISRFLPKKQRPEVIGLLQKMGDTISSYISGQVIECLFVGTFTAIGYMLISQPYGLLLGVIAGLTNIIPYVGPYIGIAPSLIVAFTKSPMQVVYVIIVVVIVQQVDGNLIYPNIIGRTLKIHPLTIIILLLAAGNIAGILGMILAIPFYAVVRTVVIYLYNIVELRNEEHLRKQTTVYQPQPAKATKADLTTTTKSKK”: the protein production entry is given as “failed”.

With “MEQTTIDGIALTLAGPVQLPLKWVGQDELLQQLLAAWMVIDDRDIPFSPRLIGKPGVGKTTLAYAAARRLGRPVYLFQATMDTRPEDLIITPVIGPDGKIQYAASSLVSAMVKGGVLILDEGNRMSEKAWASLAPLLDDRRYVESIITGLRVPAHRDFRIVVTMNEDASTFEVPEYIHSRLQPQIFIDFPEADEELMILKENLPFAPTRILKYVVDFLQRAHAADELYSVRDGINIARYALKMMAATERDAAELLPLAVERVLGDEALRYLALEHHHHHH”, the protein production entry is “failed”.

Take “MIIRIVQNIQRINKEGNAPLYISFYLGKEKVVIPCKLSVPTTKFDSKTGMLRGTNKEAKDINLIIERLKAKVNDILVKHRLKNLTLNKEAFMREYNNPSDFKSFHDFVASYMKTYSRRLEIGTFRHHKSCMRKFKEYCEGLQFHELTEDFLRDYLIYMKKTLCNADSTAQRNLSTIKIYVSAAIKKGYMENDPFKDFGVKRIKSNIDYLTEEELIKFISLYYDRRLPERLERTLGFFLFMCFTSLHISDARHVCLEQINNGILTYYRIKNRNCKPEAIKIPLSIPAFKIIEELQGKRKEGH”: the protein production result is on record as “failed”.

Turning to “MHLQPQKKKKHLQTFLHPQQTQVLQTICLQPRQKGRVDSQLIVLQAQQQQALQVPVEAVNCSENMRRLSISEDFSKALQILYNLGKISDNRESFDNTXFYEENLGKALRVNDNTVKPSAPVSTQESLRTVELTEGFRHQCIFDFCRRRDILRYFFDPIKANLSKGHGSNFDKSDSVACTLHPYTPYPHLQQLWVYYMLTYTQYLPLRLVGGQNRCEGRLEVRHEGEWGTVCDDRWNIKNARVVCRLLGCGPALGAPGRSHFGPGTGPILMNEVRCSGREDSLESCAHAGWTRHNCHHREDASVICAGPADSLVPKDNAQLSCLPHLFQAVIDRGYLRRLGYSSWDIHLNDKMCRPQVTGRYLIFNIPYGHCGTVMQKHQGSLSYSNSIRGRTQGHPGRVIVRHKVPQVKFTCKVDGQSAVEIVHGSDTKDEASYDVSISFLQSPVSQNTGGRAPLASQREEVFLQATLHSHNPNLRLVVDTCVASPDASDFTTVKYDLIQEGCIKDNSYSNLHAPEKNVAQFKFNAFSFLKSYDVVYVQCKVAVCRLGDHSSRCSQGCLNRGRRGAGSAEVREEQTEYFQTVGPLKIHREANQSKVLV”, the protein production result was “failed”.

In the case of “MSNVLIINAMKEFAHSKGALNLTLTNVAADFLRESGHQVKITTVDQGYDIESEIENYLWADTIIYQMPAWWMGEPWILKKYIDEVFTDGHGRLYQSDGRTRSDATKGYGSGGLIQGKTYMLSVTWNAPREAFTDPEQFFHGVGVDGVYLPFHKANQFLGMKPLPTFMCNDVIKQPDIEGDIARYRQHLAENVNS”, the protein production result is on record as “not failed”.

Take “MSLKNKLQVKIPGKLYVAGEYAVVESGHTAILTAVNRYITLTLEDSERNELWIPHYENPVSWPIGGELKPDGEHWTFTAEAINIATTFLKSEGIELTPVKMVIETELIDQSGAKYGLGSSAAATVAVINALMTKFYPEISMLKKFKLAALSHLVVQGNGSCGDIASCMYGGWIAYTTFDQEWVKHRLAYKSLEWFMKEPWPMLQIETLEEPVPTFSVGWTGTPVSTGKLVSQIHAFKQEDSKNYQHFLTRNNEIMKQIIQAFHTKDEELLYSSIKENRRILQELGTKAGVNIETSLLKELADSAENMGGAGKSSGSGGGDCGIAFSKTKELAEKLVNEWEKLGIKHLPFHTGRVQITEGHHHHHH”: the protein production entry was “not failed”.

Consider “MEQFLDNIKDLEVTTVVRAQEALDKKETATFFIGRKTCPYCRKFAGTLSGVVAETKAHIYFINSEEPSQLNDLQAFRSRYGIPTVPGFVHITDGQINVRCDSSMSAQEIKDFAGL”, for which the protein production entry was “not failed”.

As for “MRLFFSLLILLSFFARATEPVQVFTDDLGRKVTVPAHPKRIVSLHDLDITIPLIELGVPPVASHGRTRPDGSHFIRSGALLTGVDFDNSSIAFIGTADIDIEAIVAAKPDLIITEPTRNTPIERLEKIAPTVSIDHLKGGAPEIYRKLAELTGTQSQLAILERRYQAQINALKATLDSQKITVSVIQANQGKINVMHSYHSLGRVLRDAGFRFPPLIESIPEGGRMDVSAERLPELDADFVFATWRGDTGGKPQDELAAMEKVMPGWCQFLTACRSGRYVLISREEAISNSFASLGLMAAQIQSQIAGRPLPEAK”, the protein production entry is recorded as “not failed”.

Take “MSQYVVCALYKFVELNNYQELREPLLALMEKHHIRGTLLLAGEGINGTVASDRAGIDTLLEWLNTEPRLTGTVYKESYSETQPFNRTKVKLKKEIVTLGVEGIDPRHVVGTYVKPQDWNDLIADPEVFVVDTRNDYEIEIGTFKGAVNPNTETFREFPDYVKENMDPAKHKKVAMFCTGGIRCEKSTAYMKEQGFEEVYHLEGGILKYLEEVPQEESMWEGDCYVFDGRVAVNHQLEKADYDLCNACRLPITDEDKQSELFEQGVSCPKCHGKHSEEQVERFREREKQVSLANQRGEQHVGGESAKQRAQRREAKLAKKAAQRKQA”: the protein production result is given as “failed”.

In the case of “MISRQQKMTFKEIKDGEMEERDILLTGFYNVRLNSVQEARLTYNLPNDQTVKFGFDGNGYSYGSDFWYIYNRTAQLGKEISSHLDENASKWIEEAGQKGYTTGNQAKVGAIACLPSYLSDAESSSHLAFVEYLNSDGSFIVSEMPSPNILNWRLIQPQSKMTFIYL”, the protein production result is reported as “failed”.

With “MTFSSKLKSFCSRYFSSHEKDKYKALMKQKLLNPLSSSSPNYDEMIQENFKPHWIIGIDPNLSGALAVLKFDDKGSCSAQVNPY”, the protein production entry is listed as “failed”.

With “VMVFISSSLNSFRSEKRYSRSLTIAEFKCKLELVVGSPASCMELELYGADDKFYSKLDQEDALLGSYPVDDGCSIHVIDHSG”, the protein production result was “not failed”.

For the sequence “MRTYTAQPDTTRPDTLTVTTYNIGYLSGMRNNEPVVRPDSLFHANMDQAAGYLRAAAPDIVALQEIDFGGARAAHVHQLDTLAARLGYPGAAQAVNWDERYLPFPYGRPAVHFGRTLSGQAVLSRFPVRRHVRRTLPRPPQPFFRDAFYLDRLAQVGVVDVDGRPLAVINVHLEAFDVGTRETQARVVNDLYRRLADRGIPTLLLGDFNSSLSSGEEGGQAGAEDATMQHILAGTDLRSAVNTASADTASATYPADAPARTIDHIFYPPQFFEAVDTQRWCGRPAPPSDHCAVTAALRLPSRAKWPSHEALPPLEDSPTE”, the protein production entry is listed as “failed”.

For the sequence “RAGHIEVAEVEGMSFPVKLDTGADVSSINAKDIKLFQKDGKDMVSFTYENDLGMQKAFTREVVDVMKITAKKGEKANVRPVVEMHVKLGELEKKIRVNLQDRGRFHYSMILGKNFLKHGALVASETNYIVTKK”, the protein production entry is “not failed”.

Consider “MSKVALFSHVSPDGDCIGSMLGIGLALEALGKEVAMFNPDPIPRNLSFLPGVDKITQSMPDPLPETLLFVDCADLQRVQLQREDLPADAVILNLDHHISNQNFGRINWVDSQAAASGELAYALVRRLNVELTQEIAANFYTALLTDTGSFKYANTTAKTHQIAGELMELEHHHHHH”, for which the protein production result is given as “failed”.

“MGSMDQSIAVKSPLTYAEALANTIMNTYTVEELPPANRWHYHQGVFLCGVLRLWEATGEKRYFEYAKAYADLLIDDNGNLLFRRDELDAIQAGLILFPLYEQTKDERYVKAAKRLRSLYGTLNRTSEGGFWHKDGYPYQMWLDGLYMGGPFALKYANLKQETELFDQVVLQESLMRKHTKDAKTGLFYHAWDEAKKMPWANEETGCSPEFWARSIGWYVMSLADMIEELPKKHPNRHVWKNTLQDMIKSICRYQDKETGLWYQIVDKGDRSDNWLESSGSCLYMYAIAKGINKGYLDRAYETTLLKAYQGLIQHKTETSEDGAFLVKDICVGTSAGFYDYYVSRERSTNDLHGAGAFILAMTELEPLFRSAGK”: the protein production entry is on record as “not failed”.

For “MKLLENSRFEALSSQLCVETGDAQIIGRIESYSCKMAGDDKHMFKQFCQEGEPHVLEALSPPQSSSAPSPNLLGKSGEDAENPLSDKCCRKTLFYLITTLNESFRPDYDFSAARAHEFSREPSANWVANSVNSSLYSAVGEQFNTLGPELWTAIDQEINLQGCDIYSYNPDLDSDPFGEEGSLWSFNYFFYNKKLKRILFFTCRSVSVLSSYGRSGLDNELDMELDDEEELDGFMEDRIPRALCV”, the protein production result is listed as “failed”.

As to “MKPTLFVLAAGMGSRYGSLKQLDGIGPGGDTIMDYSVYDAIRAGFGRLVFVIRHSFEKEFREKILTKYEGRIPVELVFQELDRLPEGFSCPEGREKPWGTNHAVLMGRDAIREPFAVINADDFYGRNGFEVLARKLMTLEGKQGEYCMVGYRVGNTLSESGGVSRGVCQVDEKHLLTGVVERTGIERTDGTISFRDETGKICTLAEDAPVSMNMWGFTPDYFDYSEELFINFLNAHGQEPKSEFFIPFVVNDLIRSGRASVEVLDTTARWFGVTYSDDRPGVVAKLRELTEAGEYPTKLF”, the protein production entry is “not failed”.

On to “DVAYELPAHTTRAQLSIDLVNNGDVEQQEKINSMRFIVFGSTPGGVRLDVNEHILLSTPETATDIDAQLLEVTSSNDILVVVIANEPQSLTSQLDGIANLLTLQEMIYDISSILNSDGQIISATGMPMTGVIRDISIAPDETKTVQMVIERAVARVDVFIEAIDGGAVTGYTAGSTSVTLHNFSHDSYFVMGNVGNGTRDNADSSKNYGKVKEDVSESNLLTHSWTAATTETWAYSSAPGAENRKLLCSFYTAERLFKSDYSDRLSISMANVLKGPSDVTGITGKVIESVTKVDGTGSPTAQPFTEIRRNNVYQVTARVGKIGIQILTISVEDWGERQDIDLDMDL”, for which the protein production entry is on record as “not failed”.

With “MSESNISGPLAGEYRDLAVYGRLATVTMIWGGTFVAGRYLAGGLSPLLAASLRFLLASLALLGFMAVARIPLVRPSLRQFGQLALLGFFGIFFYNLCFFLGLEQVKASRASLIVALNPAVIALASWALFKERLGRRKLLGIALCLCGAALVICSRDPSALAAQAGSWQGDLLILGCVLGWGVYSLFSRGLNHSLGSLQTVTCSILLGTLMLCAATLIRGEFDLQAVARLNLAQGLSLLYLGVLGSALAYIWYYDGLRRIGATRCGVFIALNPLTAVILGALVLGEQLSPVMGLGGALILGGIYQCNKPLAGGAKKAIL”, the protein production entry was “failed”.
